{"source": "patent US12570698B2", "about": "“Stabilized peptides for covalent binding to target protein” (Dana-Farber Cancer Institute, Inc., priority 2015, dated 2026)", "key": {"BFL-1ΔC [1]": {"target": "T1, BFL-1ΔC (Homo sapiens, UniProt Q16548, C19S/C4S/C55S)", "T1 construct": "cDNA encoding BFL-1ΔC (aa 1-153) was cloned into the pET19b expression vector; made in house; host or cells: Escherichia coli BL21(DE3) LOBSTR", "T1 sequence (Q16548 1-153 C4S/C19S/C55S)": "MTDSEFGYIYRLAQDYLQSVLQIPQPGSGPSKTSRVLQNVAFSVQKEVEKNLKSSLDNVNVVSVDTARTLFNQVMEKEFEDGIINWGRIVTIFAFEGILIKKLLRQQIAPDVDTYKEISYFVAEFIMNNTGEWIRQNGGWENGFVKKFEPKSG", "assay": "In vitro covalent conjugation assay", "type": "binding", "details": "lacks C55; oxidizing conditions", "experimental": "(§1) In Vitro Covalent Conjugation Assay: BFL-1ΔC constructs (40 μM) were combined with NOXA SAHBA or NOXA SAHBA C25S (120 μM) and 10 mM DTT in 50 mM Tris pH 8.0, 100 mM NaCl (final volume, 5 μL), and then incubated in the dark for 1 h at room temperature (RT). After this incubation in a reducing environment, the mixture was diluted 5-fold into 50 mM Tris pH 8.0, 100 mM NaCl, 12 mM GSSG and incubated in the dark for an additional 30 min at RT. The samples were then boiled in 4× loading buffer lacking DTT and electrophoresed on 12% Bis-Tris gel. The gel was rinsed with water, subjected to FITC scan (Typhoon FLA 9500, GE Healthcare) and then Coomassie staining.\n(§2) For warhead-bearing SAHBs, His-BFL-1ΔC C4S/C19S protein was pretreated with 10 mM DTT in 50 mM Tris pH 8.0, 100 mM NaCl for 30 min at RT (final volume, 9.5 μL), and then combined with a 10:1 molar ratio of NOXA SAHBA or BIM SAHBA peptides bearing warheads 1-8 (final volume, 10 μL) for an additional 2 h incubation at RT. Processing for gel electrophoresis and Coomassie staining was performed as above."}, "BFL-1ΔC [2]": {"target": "T2, BFL-1ΔC (Homo sapiens, UniProt Q16548, C19S/C4S)", "T2 construct": "cDNA encoding BFL-1ΔC (aa 1-153) was cloned into the pET19b expression vector; made in house; host or cells: Escherichia coli BL21(DE3) LOBSTR", "T2 sequence (Q16548 1-153 C4S/C19S)": "T1 sequence (Q16548 1-153 C4S/C19S/C55S) with S55C", "assay": "In vitro covalent conjugation assay", "type": "binding", "details": "only C55 present; oxidizing conditions", "experimental": "as §1, §2"}, "BFL-1ΔC [3]": {"target": "T3, BFL-1ΔC (Homo sapiens, UniProt Q16548)", "T3 construct": "cDNA encoding BFL-1ΔC (aa 1-153) was cloned into the pET19b expression vector; made in house; host or cells: Escherichia coli BL21(DE3) LOBSTR", "T3 sequence (Q16548 1-153)": "T1 sequence (Q16548 1-153 C4S/C19S/C55S) with S4C, S19C, S55C", "assay": "In vitro covalent conjugation assay", "type": "binding", "details": "DTT (10 mM) reduction then GSSG oxidation (12 mM); Coomassie, FITC scan", "experimental": "as §1, §2"}, "Bfl-1 [4]": {"target": "T4, Bfl-1 (Homo sapiens, UniProt Q16548)", "T4 sequence (Q16548 1-175)": "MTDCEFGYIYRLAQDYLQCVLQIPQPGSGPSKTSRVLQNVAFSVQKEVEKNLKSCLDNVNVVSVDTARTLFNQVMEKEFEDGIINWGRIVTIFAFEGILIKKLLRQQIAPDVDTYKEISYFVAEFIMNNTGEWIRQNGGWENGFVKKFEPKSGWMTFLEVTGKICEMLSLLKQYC", "assay": "Competitive binding assay after pre-forming the Bfl-1:NOXA disulfide bond", "details": "Bfl-1:NOXA disulfide bond pre-formed", "experimental": "The functional impact of the Bfl-1:NOXA disulfide bond formation was evaluated using competitive binding assays and liposomal release assays."}, "MCL-1ΔNΔC": {"target": "T5, MCL-1ΔNΔC (Homo sapiens, UniProt Q07820)", "T5 construct": "MCL-1ΔNΔC (aa 170-327) and BCL-XLΔC (aa 1-212) constructs were cloned into pGEX-4T-1; GST (N, cleaved yes); made in house; host or cells: Escherichia coli BL21(DE3)", "T5 sequence (Q07820 170-327, stated change not applied)": "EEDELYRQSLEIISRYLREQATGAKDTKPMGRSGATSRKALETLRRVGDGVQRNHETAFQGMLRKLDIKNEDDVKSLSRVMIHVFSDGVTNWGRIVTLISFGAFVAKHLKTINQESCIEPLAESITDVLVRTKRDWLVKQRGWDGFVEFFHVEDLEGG", "assay": "In vitro covalent conjugation assay", "type": "binding", "details": "oxidizing conditions", "experimental": "(§3) After this incubation in a reducing environment, the mixture was diluted 5-fold into 50 mM Tris pH 8.0, 100 mM NaCl, 12 mM GSSG and incubated in the dark for an additional 30 min at RT. […] The gel was rinsed with water, subjected to FITC scan (Typhoon FLA 9500, GE Healthcare) and then Coomassie staining.\n(§4) Processing for gel electrophoresis and Coomassie staining was performed as above."}, "BCL-XLΔC": {"target": "T6, BCL-XLΔC (Homo sapiens, UniProt Q07817)", "T6 construct": "MCL-1ΔNΔC (aa 170-327) and BCL-XLΔC (aa 1-212) constructs were cloned into pGEX-4T-1; GST (N, cleaved yes); made in house; host or cells: Escherichia coli BL21(DE3)", "T6 sequence (Q07817 1-212, stated change not applied)": "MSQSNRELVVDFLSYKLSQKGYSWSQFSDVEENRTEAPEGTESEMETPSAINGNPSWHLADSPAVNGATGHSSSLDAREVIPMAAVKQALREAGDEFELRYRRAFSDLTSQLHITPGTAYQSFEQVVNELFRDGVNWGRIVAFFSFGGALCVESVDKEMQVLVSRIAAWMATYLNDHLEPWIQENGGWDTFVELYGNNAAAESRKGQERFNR", "assay": "In vitro covalent conjugation assay", "type": "binding", "details": "oxidizing conditions", "experimental": "as §3, §4"}, "Bfl-1 [5]": {"target": "T4, Bfl-1", "assay": "Liposomal release assay (Bfl-1 inhibition of BAX activation)", "type": "biochemical", "experimental": "The functional impact of the Bfl-1:NOXA disulfide bond formation was evaluated using competitive binding assays and liposomal release assays. […] Bfl-1 alone in the liposomal release assay inhibits activation of BAX and subsequent pore formation in the liposomes. […] (FIG. 5A and FIG. 5B).\nLiposomal release assay: Large unilamellar vesicles (LUVs) with lipid composition resembling the mitochondrial outer membrane were generated, encapsulating the fluorescent dye ANTS (8-aminonaphthalene-1,3,6-trisulfonic acid, disodium salt) and the quencher DPX (p-xylene-bis-pyridinium bromide). For measurement of Bfl-1-induced inhibition of BAX, Bfl-1, BAX, tBid activator and liposomes were combined. To test effects of covalently bound Bfl-1:NOXA on BAX activation, Bfl-1 and NOXA SAHB were preincubated as described, then used at the designated concentrations. ANTS release and dequenching due to DPX dissociation (F) was measured over a period of 120 min with an M1000 Infinite plate reader (Tecan) with excitation and emission wavelengths of 355 nm and 520 nm, respectively. Plates were read following liposome lysis with 1% Triton X-100 to determine maximal release (F100). Percent ANTS/DPX release was calculated as [(F−F0)/(F100−F0)]×100."}}, "note": "Changes are numbered by the printed parent chain. Bridge positions count the residues as written; N and C are the ends. Square brackets hold non-standard residues; d marks the D form. Ends that are not written are not given here. S5 = C=CCCC[C@](C)(N)C(=O)O"}
{"substance": "NOXA SAHBA: stapled NOXA BH3 (aa 19-43) peptide, i, i+4 all-hydrocarbon staple substituting R31 and K35; SEQ ID NO:124 (AELEVECATQLR[S5]FGD[S5]LNFRQKLL; staple 13-17; not fully specified)", "values": [{"measurement": "disulfide adduct with BFL-1ΔC C4S/C19S/C55S", "setting": "BFL-1ΔC [1]", "value": "no adduct"}, {"measurement": "disulfide adduct with BFL-1ΔC C4S/C19S", "setting": "BFL-1ΔC [2]", "value": "molecular weight shift (Coomassie stain) and FITC-labeling"}, {"measurement": "molecular weight shift of wild-type BFL-1ΔC (disulfide bond)", "setting": "BFL-1ΔC [3]", "value": "shift in the molecular weight"}, {"measurement": "availability of the Bfl-1 binding pocket to another FITC BH3 domain", "setting": "Bfl-1 [4]", "value": "significantly decreased the availability of the Bfl-1 binding pocket"}, {"measurement": "molecular weight shift or FITC labeling", "setting": "MCL-1ΔNΔC", "value": "no molecular weight shift or FITC labeling"}, {"measurement": "molecular weight shift or FITC labeling", "setting": "BCL-XLΔC", "value": "no molecular weight shift or FITC labeling"}, {"measurement": "inhibition of anti-apoptotic effects of Bfl-1 on BAX", "setting": "Bfl-1 [5]; Bfl-1:NOXA disulfide bond formed prior to the assay", "value": "almost completely erases the effects of Bfl-1"}, {"measurement": "inhibition of anti-apoptotic effects of Bfl-1 on BAX", "setting": "Bfl-1 [5]; NOXA added concurrently with Bfl-1", "value": "somewhat inhibited"}]}
